This note sets out measurements from PMC10284121 (2023).

B1: 14-3-3γ (protein)
chain: VDREQLVQKARLAEQAERYDDMAAAMKNVTELNEPLSNEERNLLSVAYKNVVGARRSSWRVISSIEQKTSADGNEKKIEMVRAYREKIEKELEAVCQDVLSLLDNYLIKNCSETQYESKVFYLKMKGDYYRYLAEVATGEKRATVVESSEKAYSEAHEISKEHMQPTHPIRLGLALNYSVFYYEIQNAPEQACHLAKTAFDDAIAELDTLNEDSYKDSTLIMQLLRDNLTLWTSDQQDDDGGEGNN
modifications: phosphopeptide, fluorescein label, MG1 present (2-3 h)
B2: 14-3-3γ (protein)
chain: VDREQLVQKARLAEQAERYDDMAAAMKNVTELNEPLSNEERNLLSVAYKNVVGARRSSWRVISSIEQKTSADGNEKKIEMVRAYREKIEKELEAVCQDVLSLLDNYLIKNCSETQYESKVFYLKMKGDYYRYLAEVATGEKRATVVESSEKAYSEAHEISKEHMQPTHPIRLGLALNYSVFYYEIQNAPEQACHLAKTAFDDAIAELDTLNEDSYKDSTLIMQLLRDNLTLWTSDQQDDDGGEGNN
modifications: phosphopeptide, fluorescein label, MG1 present, pH 6.5
B3: 14-3-3γ (protein)
chain: VDREQLVQKARLAEQAERYDDMAAAMKNVTELNEPLSNEERNLLSVAYKNVVGARRSSWRVISSIEQKTSADGNEKKIEMVRAYREKIEKELEAVCQDVLSLLDNYLIKNCSETQYESKVFYLKMKGDYYRYLAEVATGEKRATVVESSEKAYSEAHEISKEHMQPTHPIRLGLALNYSVFYYEIQNAPEQACHLAKTAFDDAIAELDTLNEDSYKDSTLIMQLLRDNLTLWTSDQQDDDGGEGNN
modifications: phosphopeptide, fluorescein label, fusicoccin-A present
B4: 14-3-3γ (protein)
chain: VDREQLVQKARLAEQAERYDDMAAAMKNVTELNEPLSNEERNLLSVAYKNVVGARRSSWRVISSIEQKTSADGNEKKIEMVRAYREKIEKELEAVCQDVLSLLDNYLIKNCSETQYESKVFYLKMKGDYYRYLAEVATGEKRATVVESSEKAYSEAHEISKEHMQPTHPIRLGLALNYSVFYYEIQNAPEQACHLAKTAFDDAIAELDTLNEDSYKDSTLIMQLLRDNLTLWTSDQQDDDGGEGNN
modifications: phosphopeptide, fluorescein label, MG1 present (10 min)
B5: 14-3-3γ (protein)
chain: VDREQLVQKARLAEQAERYDDMAAAMKNVTELNEPLSNEERNLLSVAYKNVVGARRSSWRVISSIEQKTSADGNEKKIEMVRAYREKIEKELEAVCQDVLSLLDNYLIKNCSETQYESKVFYLKMKGDYYRYLAEVATGEKRATVVESSEKAYSEAHEISKEHMQPTHPIRLGLALNYSVFYYEIQNAPEQACHLAKTAFDDAIAELDTLNEDSYKDSTLIMQLLRDNLTLWTSDQQDDDGGEGNN
modifications: phosphopeptide, fluorescein label
B6: 14-3-3γ (protein)
chain: VDREQLVQKARLAEQAERYDDMAAAMKNVTELNEPLSNEERNLLSVAYKNVVGARRSSWRVISSIEQKTSADGNEKKIEMVRAYREKIEKELEAVCQDVLSLLDNYLIKNCSETQYESKVFYLKMKGDYYRYLAEVATGEKRATVVESSEKAYSEAHEISKEHMQPTHPIRLGLALNYSVFYYEIQNAPEQACHLAKTAFDDAIAELDTLNEDSYKDSTLIMQLLRDNLTLWTSDQQDDDGGEGNN
modifications: phosphopeptide, fluorescein label, MG1 present, pH 8.0

Sequence of Pin1 phosphopeptide (fluorescein-labelled) (Q13526 whole entry): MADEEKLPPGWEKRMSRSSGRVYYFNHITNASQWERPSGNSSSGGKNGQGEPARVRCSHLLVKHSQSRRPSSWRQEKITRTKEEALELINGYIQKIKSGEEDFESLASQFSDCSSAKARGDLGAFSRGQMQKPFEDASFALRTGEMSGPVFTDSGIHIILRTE

The assay concerns the target Pin1 phosphopeptide (fluorescein-labelled) (Homo sapiens, UniProt Q13526). Briefly: fluorescence anisotropy. On the technique in general: Polarisation of emitted light reports the rotation of a fluorescent probe.
Usually Kd stands for the equilibrium constant for the complex coming apart. A low value points to higher affinity. The molecule B1 returned a Kd of 1.5 µM.

Take B2: the Kd is ~5.2 µM.

Consider B3, for which the Kd was found to be 2.9 µM.

For the molecule B4, the Kd came out at 5.4 µM.

In turn, B5 showed a Kd of 30 µM.

Regarding B6, the Kd was ~0.6 µM.
